Assay results reported in IntAct's records for PubMed 15385968.

Biological target: xrcc4_human XRCC4 (UniProt Q13426)
Sequence (Q13426 whole entry): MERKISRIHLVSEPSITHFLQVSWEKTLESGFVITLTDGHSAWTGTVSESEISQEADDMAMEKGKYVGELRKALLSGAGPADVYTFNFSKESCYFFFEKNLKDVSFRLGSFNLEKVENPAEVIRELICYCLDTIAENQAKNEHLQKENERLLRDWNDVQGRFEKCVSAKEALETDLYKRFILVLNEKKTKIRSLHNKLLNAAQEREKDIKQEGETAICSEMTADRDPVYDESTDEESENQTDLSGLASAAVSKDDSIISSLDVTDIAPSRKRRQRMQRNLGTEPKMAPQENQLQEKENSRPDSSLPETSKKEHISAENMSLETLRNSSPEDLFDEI

- effect of a mutation on the interaction: disrupting interaction
Substance: Bifunctional polynucleotide phosphatase/kinase (Homo sapiens), Q96T60 R35A
